Stoichiometry N data for three substances are collected here from article PMC8396674.

Common to all, as to assay: AUC; sedimentation velocity, 0.25 mg/mL (14.7 µM) protein with 7-fold molar excess of TbCl3, 20 °C, 50,000 rpm, c(s) analysis
For assay [1], the target named is gC1q domain of human otolin-1 (hOtolC1q), wild type (human).
The target of assay [2] is gC1q domain of human otolin-1, natural variant Q426R (human).
Assay [3] addresses gC1q domain of human otolin-1, natural variant R339S (human).

For orientation: stoichiometry N means a count of units in the complex or per binding partner. In assay [1], “gC1q domain of human otolin-1 (hOtolC1q), wild type (domain or fragment)” came in with a stoichiometry N of 3.
In assay [2], “gC1q domain of human otolin-1, natural variant Q426R (domain or fragment)” registered a stoichiometry N of 3.
The substance “gC1q domain of human otolin-1, natural variant R339S (domain or fragment)” displayed a stoichiometry N in assay [3] of 3.
